Where a chain is given by its changes, count along the chain named.
Tests used:
Test in all cases: SPR Biacore 8k+ 25C, antibody captured, FcγR analyte; mean
[1] = target: T1, human FcγRIIa(H) extracellular domain with C-terminal His tag (human, UniProt P12318 34-217)
T1 construct: also called hFcγRIIa(H)
T1 sequence: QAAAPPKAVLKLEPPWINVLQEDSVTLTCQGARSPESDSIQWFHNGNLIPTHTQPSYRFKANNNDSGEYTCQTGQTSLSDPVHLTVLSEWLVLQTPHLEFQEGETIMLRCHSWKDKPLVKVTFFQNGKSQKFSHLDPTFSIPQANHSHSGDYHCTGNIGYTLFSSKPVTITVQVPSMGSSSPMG
Protocol: (§1) Here, Tremfya (Janssen Pharmaceutical K.K), which is an IgG1 antibody in which the L-chain is a X-chain, was also evaluated as a control. The binding activity was evaluated at 25° C. using as a running buffer 50 mM phosphate buffer, 150 mM NaCl, 0.05 w/v %-P20, pH7.4. As a molecule for ligand capture, CaptureSelect (trademark) Human Fab-lambda Kinetics Biotin Conjugate (ThermoFisher scientific) was immobilized onto a Series S Sensor chip SA sensor chip (Cytiva). An antibody solution prepared with the running buffer was allowed to interact with the SA sensor chip for capturing about 250 RU, or 500 RU, or about 1000 RU, of antibody. Then, hFcγRs and cyFcγRs diluted with the running buffer were allowed to bind to the captured antibodies. […] The chip was regenerated using 10 mM Glycine-HCl (pH 1.5), and measurements were performed by repeatedly capturing the antibodies. The binding activity of each antibody for each FcγR was evaluated by calculating the KD value using the Biacore Insight Evaluation Software with the Steady state model or 1:1 binding model.

[2] = target: T2, human FcγRIIb extracellular domain with C-terminal His tag (human, UniProt P31994 43-217)
T2 construct: also called hFcγRIIb
T2 sequence: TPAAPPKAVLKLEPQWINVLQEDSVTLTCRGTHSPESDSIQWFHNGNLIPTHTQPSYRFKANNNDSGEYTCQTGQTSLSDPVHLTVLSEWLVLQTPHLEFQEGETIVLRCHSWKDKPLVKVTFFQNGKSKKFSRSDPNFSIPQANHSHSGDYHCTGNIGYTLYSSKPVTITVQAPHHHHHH
Protocol: as §1

[3] = target: T3, human FcγRIIIa(F) extracellular domain with C-terminal His tag (human, UniProt P08637 17-208)
T3 construct: also called hFcγRIIIa(F)
Protocol: as §1

[4] = target: T4, human FcγRIIIa(V) extracellular domain with C-terminal His tag (human, UniProt P08637 17-208)
T4 construct: also called hFcγRIIIa(V)
Protocol: as §1

[5] = target: T5, human FcγRIIa(R) extracellular domain with C-terminal His tag (human, UniProt P12318 34-217)
T5 construct: also called hFcγRIIa(R)
T5 chain: T1 sequence with H134R
Protocol: as §1

[6] = target: T6, human FcγRIa extracellular domain with C-terminal His tag (human, UniProt P12314 16-288)
T6 construct: also called hFcγRIa
Protocol: as §1

[7] = target: T7, cynomolgus monkey FcγRIIIa(R) extracellular domain with His tag (cynomolgus monkey, UniProt Q8SPW2 17-208)
T7 construct: also called cyFcγRIIIa(R)
Protocol: as §1

[8] = target: T8, cynomolgus monkey FcγRIIb extracellular domain with His tag (cynomolgus monkey)
T8 construct: also called cyFcγRIIb
T8 chain: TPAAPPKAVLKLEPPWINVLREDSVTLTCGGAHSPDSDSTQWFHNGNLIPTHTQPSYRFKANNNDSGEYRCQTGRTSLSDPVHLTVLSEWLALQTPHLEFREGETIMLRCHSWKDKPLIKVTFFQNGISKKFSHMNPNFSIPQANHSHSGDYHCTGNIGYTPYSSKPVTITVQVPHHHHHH
Protocol: as §1

[9] = target: T9, cynomolgus monkey FcγRIIIa(S) extracellular domain with His tag (cynomolgus monkey, UniProt Q8SPW2 21-206 at identity 1.00))
T9 construct: also called cyFcγRIIIa(S)
T9 chain: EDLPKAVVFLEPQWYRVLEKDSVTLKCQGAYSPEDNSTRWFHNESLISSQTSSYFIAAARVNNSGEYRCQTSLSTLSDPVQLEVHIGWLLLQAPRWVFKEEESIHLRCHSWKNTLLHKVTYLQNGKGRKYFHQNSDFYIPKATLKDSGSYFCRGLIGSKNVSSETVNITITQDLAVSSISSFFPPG
Protocol: as §1

[10] = target: T10, cynomolgus monkey FcγRIIa3 extracellular domain with His tag (cynomolgus monkey)
T10 construct: also called cyFcγRIIa3
T10 chain: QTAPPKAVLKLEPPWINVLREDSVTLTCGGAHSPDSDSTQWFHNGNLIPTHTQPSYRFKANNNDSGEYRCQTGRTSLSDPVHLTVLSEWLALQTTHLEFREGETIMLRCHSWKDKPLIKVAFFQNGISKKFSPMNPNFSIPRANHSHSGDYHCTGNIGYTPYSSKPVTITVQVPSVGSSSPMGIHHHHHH
Protocol: as §1

[11] = target: T11, cynomolgus monkey FcγRIIa2 extracellular domain with His tag (cynomolgus monkey)
T11 construct: also called cyFcγRIIa2
T11 chain: T10 chain with I127K, K130N, P133H, R142Q
Protocol: as §1

[12] = target: T12, cynomolgus monkey FcγRIIa1 extracellular domain with His tag (cynomolgus monkey)
T12 construct: also called cyFcγRIIa1
T12 chain: T10 chain with T95P, A121T, S128A, P133H, N135D
Protocol: as §1

[13] = target: T13, cynomolgus monkey FcγRIa extracellular domain with His tag (cynomolgus monkey, UniProt P12314 16-288 (human entry))
T13 construct: also called cyFcγRIa
T13 chain: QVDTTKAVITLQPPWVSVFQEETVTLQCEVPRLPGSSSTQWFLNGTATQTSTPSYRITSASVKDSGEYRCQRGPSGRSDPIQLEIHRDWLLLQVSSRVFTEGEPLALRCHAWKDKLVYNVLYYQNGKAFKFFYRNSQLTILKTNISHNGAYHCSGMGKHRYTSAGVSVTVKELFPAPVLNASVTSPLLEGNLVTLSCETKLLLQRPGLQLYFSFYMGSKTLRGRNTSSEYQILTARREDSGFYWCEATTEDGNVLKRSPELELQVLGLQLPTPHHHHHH
Protocol: as §1

T3 sequence (P08637 other isoform, or with tags, fused parts or gaps): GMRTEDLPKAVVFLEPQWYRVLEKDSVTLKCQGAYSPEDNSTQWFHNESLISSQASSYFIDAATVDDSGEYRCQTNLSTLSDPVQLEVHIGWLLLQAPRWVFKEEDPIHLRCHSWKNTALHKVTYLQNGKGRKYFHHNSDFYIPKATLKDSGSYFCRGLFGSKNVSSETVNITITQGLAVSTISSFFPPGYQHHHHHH
T4 sequence (P08637 other isoform, or with tags, fused parts or gaps): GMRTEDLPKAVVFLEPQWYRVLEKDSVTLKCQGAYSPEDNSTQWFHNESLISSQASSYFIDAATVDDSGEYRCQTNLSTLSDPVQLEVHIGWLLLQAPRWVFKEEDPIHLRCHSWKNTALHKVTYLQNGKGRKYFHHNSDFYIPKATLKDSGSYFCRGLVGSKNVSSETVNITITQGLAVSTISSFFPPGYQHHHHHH
T7 sequence (Q8SPW2 other isoform, or with tags, fused parts or gaps): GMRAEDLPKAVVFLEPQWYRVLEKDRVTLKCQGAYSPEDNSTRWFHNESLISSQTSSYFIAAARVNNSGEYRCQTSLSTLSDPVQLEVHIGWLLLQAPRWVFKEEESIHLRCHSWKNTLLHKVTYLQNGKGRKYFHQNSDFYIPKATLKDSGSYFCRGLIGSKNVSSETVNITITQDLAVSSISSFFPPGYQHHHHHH

Kd [1]: 343 nM
Kd [2]: 38800 nM
Kd [3]: 4.13 nM
Kd [4]: 1.82 nM
Kd [5]: 1790 nM
Kd [6]: 0.0387 nM
Kd [7]: 1.01 nM
Kd [8]: 2520 nM
Kd [9]: 0.933 nM
Kd [10]: 5290 nM
Kd [11]: 2320 nM
Kd [12]: 540 nM
Kd [13]: 0.0106 nM
B1: 04H1654-KT498/04L1610-lam1//04H1656-HT518/04L1610-lam1 (antibody, human IgG1, lambda)
heavy 1: QVQLVESGGGVVQPGGSLRLSCAASGFTFSSKTMNWVRQAPGKGLEWVSSISTQSHYIYYARSVRGRFTISRDNAKNSLYLQMNSLRAEDTAVYYCARYGKREDMLWVFDYWGQGTLVTVSSASTKGPSVFPLAPSSKSTSGGTAALGCLVKDYFPEPVTVSWNSGALTSGVHTFPAVLQSSGLYSLSSVVTVPSSSLGTQTYICNVNHKPSNTKVDKRVEPKSCDKTHTCPPCPAPEFQWGPMVFLFPPKPKDVLMISRTPEVTCVVVDVSDEEPEVKFNWYVDGVEVHNAKTKPREEQYNATYRVVSVLPVLHQDWLNGKEYKCKVSNKALPMPIEKTISKAKGQPREPQVYTLPPSRKEMTKNQVSLTCLVKGFYPSDIAVEWESNGQPENNYKTTPPVLDSDGSFFLYSKLTVDKSRWQQGNVFSCSVMHEALHNHYTQKSLSLSP
heavy 2: QVQLVESGGGVVQPGGSLRLSCAASGFTFSSKTMNWVRQAPGKGLEWVSSISTQSHYIYYAESVRGRFTISRDNAKNSLYLQMNSLRAEDTAVYYCARYGAREDMLWVFDYWGQGTLVTVSSASTKGPSVFPLAPSSKSTSGGTAALGCLVKDYFPEPVTVSWNSGALTSGVHTFPAVLQSSGLYSLSSVVTVPSSSLGTQTYICNVNHKPSNTKVDKRVEPKSCDKTHTCPPCPAPELLGGPSVFLFPPKPKDVLMISRTPEVTCVVVDVSHEEPEVKFNWYVDGVEVHNAKTKPREEQYNATYRVVSVLPVLHQDWLNGKEYKCKVSNDALPMPIEETISKAKGQPREPQVYTLPPSREEMTKNQVSLTCLVKGFYPSDIAVEWESNGQPENNYKTTPPVLDSDGSFFLYSKLTVDKSRWQQGNVFSCSVMHEALHNHYTQESLSLSP
light: QSALTQPPSASGSPGQSVTISCEGPSTGVGDYNWVHWYQQHPGKAPKLMIYFTSKKPSGVPDRFSGSKSGNTASLTVSGLQAEDEADYYCQTYAAPLGPMFGGGTKLTVLGQPKAAPSVTLFPPSSEELQANKATLVCLISDFYPGAVTVAWKADSSPVKAGVETTTPSKQSNNKYAASSYLSLTPEQWKSHRSYSCQVTHEGSTVEKTVAPTECS
notes: also called SW1610-ART12
